According to publication PMC4197441, “Phosphoinositide 3-kinase p85beta regulates invadopodium formation” (Biology Open, 2014):

Target: T1, focal adhesion kinase (mouse (endogenous in NIH3T3), UniProt P34152 1-1052)
T1 construct: focal adhesion kinase (FAK), endogenous in NIH3T3 fibroblasts, immunoprecipitated with anti-FAK Ab (BD Bioscience); also called FAK; Ptk2; source: endogenous, NIH3T3 cell extract
Assay: co-IP; NIH3T3 cell extracts (500 µg, TX-100 lysis buffer) immunoprecipitated with anti-FAK Ab, WB with anti-HA Ab; cells without serum 16 h, then 10% serum (in suspension), FN, or FN plus serum for 20 or 60 min
Settings: partners not purified

T1 sequence (P34152 whole entry): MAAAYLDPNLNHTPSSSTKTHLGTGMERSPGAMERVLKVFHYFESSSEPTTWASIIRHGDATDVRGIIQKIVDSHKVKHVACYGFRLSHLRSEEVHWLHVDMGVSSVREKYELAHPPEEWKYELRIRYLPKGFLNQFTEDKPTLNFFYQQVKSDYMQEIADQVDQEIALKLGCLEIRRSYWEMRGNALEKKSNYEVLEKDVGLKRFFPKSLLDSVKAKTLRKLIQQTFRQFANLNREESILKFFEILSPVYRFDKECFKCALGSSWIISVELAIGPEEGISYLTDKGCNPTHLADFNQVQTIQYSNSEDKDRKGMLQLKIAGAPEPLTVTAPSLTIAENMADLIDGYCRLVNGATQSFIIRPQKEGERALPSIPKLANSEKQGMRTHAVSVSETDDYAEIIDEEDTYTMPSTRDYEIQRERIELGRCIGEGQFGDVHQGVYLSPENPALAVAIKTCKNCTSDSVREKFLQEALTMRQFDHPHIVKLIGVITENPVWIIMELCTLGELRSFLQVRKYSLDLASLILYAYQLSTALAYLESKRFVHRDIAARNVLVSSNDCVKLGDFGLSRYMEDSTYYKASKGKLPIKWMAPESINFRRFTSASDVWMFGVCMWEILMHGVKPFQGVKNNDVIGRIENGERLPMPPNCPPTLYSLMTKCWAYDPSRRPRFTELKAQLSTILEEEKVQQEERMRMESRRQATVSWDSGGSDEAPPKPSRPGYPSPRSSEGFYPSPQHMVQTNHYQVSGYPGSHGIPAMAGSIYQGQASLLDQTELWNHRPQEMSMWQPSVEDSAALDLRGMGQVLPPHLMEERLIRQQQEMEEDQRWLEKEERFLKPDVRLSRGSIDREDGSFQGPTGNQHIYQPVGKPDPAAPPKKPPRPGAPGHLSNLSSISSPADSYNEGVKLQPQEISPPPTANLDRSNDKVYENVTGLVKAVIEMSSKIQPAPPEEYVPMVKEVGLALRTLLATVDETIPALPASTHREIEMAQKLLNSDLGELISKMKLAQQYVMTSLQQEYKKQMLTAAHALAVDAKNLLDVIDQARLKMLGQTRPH

- fold amount co-precipitated with FAK relative to rHAp85α: 5 fold
B1: recombinant HA-tagged p85β (regulatory subunit of phosphoinositide 3-kinase) (natural protein)
chain: not shown
notes: p85β regulatory subunit of PI3K, murine cDNA (from pT7/T3-U19) subcloned into pSG5; the p85β ATG codon was replaced with a proline residue and the ATG of the HA tag kept; The only change is the first methionine to proline at the junction with the N-terminal HA tag; also called rHAp85β; HA-p85β; source: NIH3T3, transfected (pSG5), in cell extract; not shown: HA, N-terminal, kept
